Data on 142 sequences can be found in the Immune Epitope Database (IEDB).

A value given as a limit tells only on which side of the number the result lay.

The test deals with HLA-A*02:01. The experiment in a line: IEDB peptide-MHC binding, cellular MHC/competitive/fluorescence; ≥ and ≤ were set here for values at or beyond the usual limits of such assays. To be noted: source organism: Vaccinia virus WR.
In turn, GAIYKLGSSI came in with a 50% inhibitory concentration (IC50) of 36.6 µM.

With EATYHIIIV, the IC50 amounted to 11 µM.

The sequence AIMFKDDNI came in with an IC50 of 9.74 µM.

For the sequence GVIFLISVIV, the IC50 came out at 5.83 µM.

The sequence LIRPKILSM returned a concentration for half-maximal inhibition (IC50) of at least 70 µM.

In turn, AAITDAAVAV had a half-inhibitory concentration (IC50) of 5.31 µM.

As to IAMKVIQGI, the IC50 amounted to 7.73 µM.

RIKIDKLRQI had an IC50 of at least 70 µM.

As to TQHPDYAILA, the IC50 was determined as 6.73 µM.

Turning to SAKRITESIT, the IC50 was at least 70 µM.

As for EIPTRTLDT, the half-inhibitory concentration (IC50) was found to be 5.98 µM.

In the case of TIGNQLYLT, the half-inhibitory concentration (IC50) was 18.3 µM.

For the sequence YASIINRDII, the half-inhibitory concentration (IC50) was 7.11 µM.

Turning to GATLYRFKHI, the IC50 is at least 70 µM.

Regarding NTRDTQQHPI, the IC50 is at least 70 µM.

EVVANVIGL: the IC50 worked out at 12.2 µM.

As to PTLDNILGI, the half-maximal inhibitory concentration (IC50) was found to be 6.67 µM.

Consider SQSERDNYIT, for which the half-inhibitory concentration (IC50) is at least 70 µM.

As for DIDEILGIA, the IC50 was at least 70 µM.

For the sequence PITIENALV, the IC50 is at least 70 µM.

In turn, NTSLEIEFT returned a 50% inhibitory concentration (IC50) of at least 70 µM.

For LVKLSSYHVV, the concentration for half-maximal inhibition (IC50) is 14.4 µM.

The sequence CIKSHSVSLV registered an IC50 of at least 70 µM.

Regarding DLENNLVKL, the IC50 stood at 16.2 µM.

Sequence ELVNLIQAKT gave an IC50 of at least 70 µM.

As to PIIFGESSI, the IC50 stood at 34.7 µM.

As to KIKVTAASPM, the IC50 was at least 70 µM.

The sequence KVDVELFIKA showed a 50% inhibitory concentration (IC50) of 8 µM.

Sequence KILTREMGFL gave an IC50 of 5.47 µM.

ETMPCVKKKA showed an IC50 of at least 70 µM.

Take NTFPNITLKI: the IC50 was found to be 10.1 µM.

MQRISGSNIV came in with an IC50 of 13 µM.

DLSKLSKDV displayed a half-maximal inhibitory concentration (IC50) of 6.36 µM.

Turning to TTSSREERVL, the half-maximal inhibitory concentration (IC50) was at least 70 µM.

Sequence YITSGKNNM yielded a half-inhibitory concentration (IC50) of 51.6 µM.

Consider SVEKVGINLV, for which the concentration for half-maximal inhibition (IC50) was found to be 50 µM.

On to KTKYYKFDYI, for which the IC50 stood at 51.5 µM.

PVSTNGKIVM came in with a concentration for half-maximal inhibition (IC50) of at least 70 µM.

Take VTDTINTVL: the IC50 came out at 13.6 µM.

For ELMPIRTDT, the IC50 is at least 70 µM.

In turn, AIDFGNGADL displayed a half-inhibitory concentration (IC50) of 46.8 µM.

For the sequence LVVSTKGDV, the half-maximal inhibitory concentration (IC50) was determined as 25.8 µM.

In turn, LTSGEYKQCL registered a half-inhibitory concentration (IC50) of 20.2 µM.

NVTNPFDFM showed a half-maximal inhibitory concentration (IC50) of 7.94 µM.

STHRKVASST: the IC50 is 51.5 µM.

Consider EQTSVFSAT, for which the IC50 is 16.9 µM.

Take IAHLLEHLLI: the IC50 was found to be 15.7 µM.

Turning to SADDIQAIM, the IC50 came out at 12.1 µM.

EVASTHDWST registered an IC50 of at least 70 µM.

As to LARNLGLVDI, the IC50 is at least 70 µM.

Consider HLNPSRIRIT, for which the concentration for half-maximal inhibition (IC50) was at least 70 µM.

Sequence SINVDSTDEL yielded a half-inhibitory concentration (IC50) of 60.3 µM.

For NIIMKTPGNT, the IC50 stood at 8.14 µM.

As to STFSIGGVI, the half-maximal inhibitory concentration (IC50) amounted to 23.5 µM.

NAKCIEYVT came in with a half-maximal inhibitory concentration (IC50) of at least 70 µM.

AVNEEWLTA came in with a 50% inhibitory concentration (IC50) of 17.3 µM.

Consider LVATDPDADA, for which the IC50 was at least 70 µM.

With GVSDLISTEI, the IC50 worked out at 41.8 µM.

As to NAKLTSTET, the IC50 was found to be 8.67 µM.

For SIRIKIDKL, the half-inhibitory concentration (IC50) was 16.5 µM.

KITFALKKLI displayed a concentration for half-maximal inhibition (IC50) of 64.7 µM.

Sequence ILFLLFVCI came in with an IC50 of 5.69 µM.

As to GTVINEDIV, the concentration for half-maximal inhibition (IC50) is 35.7 µM.

FVFYKPKHST came in with an IC50 of at least 70 µM.

In turn, DACKKILSA registered a 50% inhibitory concentration (IC50) of 14.4 µM.

Consider LIAFSSGTVI, for which the concentration for half-maximal inhibition (IC50) was 7.63 µM.

In turn, TVELMNLKEL registered an IC50 of 50.6 µM.

Turning to ALNISSTKT, the IC50 worked out at 21.1 µM.

For the sequence VISPMGKLT, the IC50 came to 8.49 µM.

As for IIIVALTIM, the IC50 worked out at 9.64 µM.

Sequence ELTTLSRHI had a half-inhibitory concentration (IC50) of 18.6 µM.

The sequence TIKISPGIA registered an IC50 of 37.4 µM.

IQETIRSDT yielded an IC50 of 49.6 µM.

Regarding IIRYPVKRI, the 50% inhibitory concentration (IC50) was determined as 10.1 µM.

LVFIKPPLIT: the IC50 worked out at 38.9 µM.

MTENVEEDL came in with a concentration for half-maximal inhibition (IC50) of 22.1 µM.

Consider AAITDAAVA, for which the IC50 turned out to be 18.6 µM.

The sequence NVILSPPINA showed a 50% inhibitory concentration (IC50) of 7.25 µM.

Sequence EAVKDKNWTV registered a 50% inhibitory concentration (IC50) of 14.8 µM.

For the sequence QQALSSFHTT, the concentration for half-maximal inhibition (IC50) came out at 29.1 µM.

The sequence TISMLIEVIL registered an IC50 of at least 70 µM.

Take PTELKETLL: the concentration for half-maximal inhibition (IC50) is at least 70 µM.

Consider ITDAAVAVAA, for which the IC50 amounted to 6.51 µM.

DANVVSSST registered an IC50 of 7.63 µM.

KIDKLRQIVA yielded an IC50 of 32.4 µM.

With IIERSKKFI, the IC50 turned out to be 5.31 µM.

For EQTSVFSATV, the half-maximal inhibitory concentration (IC50) was 28.6 µM.

For the sequence EQRSTAYEI, the 50% inhibitory concentration (IC50) came out at 8.92 µM.

Sequence IVLSNTSTA returned a half-maximal inhibitory concentration (IC50) of 16.9 µM.

ELTASGGKVL returned a 50% inhibitory concentration (IC50) of at least 70 µM.

With TVTNLISET, the IC50 was 31.1 µM.

In turn, CIEYVTLNA came in with a half-maximal inhibitory concentration (IC50) of 11.1 µM.

Turning to IVEHLRDQSI, the half-inhibitory concentration (IC50) is at least 70 µM.

For the sequence IVTLQKVLHV, the half-maximal inhibitory concentration (IC50) came to 32.9 µM.

Take DMPSLSNGLI: the IC50 is 43 µM.

AASPMLYQLL registered an IC50 of 16 µM.

SILRSIEGEL came in with a half-maximal inhibitory concentration (IC50) of 5.85 µM.

With IVALTIMGVI, the IC50 was determined as 5.77 µM.

AVEHIPTMKI registered an IC50 of 14.3 µM.

Sequence EVFINDNGI had a half-inhibitory concentration (IC50) of at least 70 µM.

TTSEVVDML returned a concentration for half-maximal inhibition (IC50) of 6.04 µM.

Sequence FINKLNGAM showed a concentration for half-maximal inhibition (IC50) of 57.8 µM.

With ITTMDGDKL, the IC50 was found to be 15 µM.

In turn, FTNLLSKNT came in with a 50% inhibitory concentration (IC50) of 13.1 µM.

ATDPDADAIA yielded an IC50 of at least 70 µM.

For the sequence VLTTPGLNHA, the IC50 was at least 70 µM.

Turning to VIYPNFSKAM, the half-inhibitory concentration (IC50) stood at 17.8 µM.

Sequence DIRTLLPIL showed an IC50 of 37.6 µM.

As to IIYNANKLI, the IC50 came out at 17 µM.

LQKFSFKIAI came in with a concentration for half-maximal inhibition (IC50) of at least 70 µM.

The sequence LTTLSRHIFM came in with an IC50 of 5.83 µM.

Regarding VTLQKVLHVT, the half-maximal inhibitory concentration (IC50) turned out to be 35.9 µM.

Consider KIEPRNILI, for which the IC50 was determined as 8.32 µM.

For IQESFIRFT, the IC50 was found to be 36.2 µM.

Sequence AVAVAAASST registered an IC50 of 51.7 µM.

Consider NVEEDLARNL, for which the IC50 was at least 70 µM.

As for TAASPMLYQL, the IC50 is at least 70 µM.

EVVVFGEAV had an IC50 of 13.4 µM.

PVTEDDYKFL: the IC50 is 26.7 µM.

Consider PVSTNGKIV, for which the IC50 was at least 70 µM.

DIVGLDLENL returned an IC50 of 16.6 µM.

In turn, TANVVFRYM returned an IC50 of 19.3 µM.

In turn, YVESKLVDI returned a 50% inhibitory concentration (IC50) of 25.3 µM.

Turning to DMLVNRMQRI, the concentration for half-maximal inhibition (IC50) came to 11.7 µM.

VATDPDADAI registered an IC50 of at least 70 µM.

For EAVKDKNWT, the 50% inhibitory concentration (IC50) was 38.7 µM.

For the sequence DINSDNSNI, the IC50 is 24.8 µM.

Turning to NQCMSANEAA, the IC50 was 67.6 µM.

In turn, VATDPDADA registered an IC50 of at least 70 µM.

In turn, SISKSNAKCI displayed a concentration for half-maximal inhibition (IC50) of at least 70 µM.

As for DLENLYAVT, the IC50 is 6.55 µM.

PLITLTNVV yielded an IC50 of 6.67 µM.

ELTASGGKV registered an IC50 of 49.8 µM.

VARRKDQTA: the IC50 is 37.7 µM.

Regarding FIKPPLITLT, the concentration for half-maximal inhibition (IC50) is at least 70 µM.

Take MASLLYLIL: the half-maximal inhibitory concentration (IC50) came out at 9.14 µM.

TTLSRHIFM came in with an IC50 of 6.42 µM.

Sequence RQSSCKMAL registered an IC50 of 42.7 µM.

SIVVELEPSL registered an IC50 of 7.93 µM.

In turn, PVSKVKSCL returned an IC50 of 14.3 µM.

The sequence IMSLNGKKHT registered a concentration for half-maximal inhibition (IC50) of at least 70 µM.

For EILTVKRPLL, the IC50 is at least 70 µM.
